Measured values from the supplement of paper PMC10567573.

B1: ZNF24 (parent)
chain: YGETCFPKGRFERKRNPSRKKQHI

Variants of: B1
Test: protein stability index of a GFP-peptide fusion (GPS, HEK-293T) (PSI 1-6); higher = more stable
Conditions: c terminus: a fixed tail appended
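Also: lentivirally expressed fusions sorted by FACS into six bins by GFP to DsRed ratio, PSI derived from sequencing read proportions per bin multiplied by bin number.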

Question: With YGETCFPKGRFERKRNQSRKKQHI as the variant, how does the protein stability index read?
Answer: 2.95

Question: Which protein stability index does the source give for YGETCFPKGRFERKRNMSRKKQHI here?
Answer: 2.79

Question: For YGETCFPKGRFERKRNSSRKKQHI, which protein stability index is on record?
Answer: 2.62

Question: For YGETCFPKGRFERKRNRSRKKQHI, which protein stability index is on record?
Answer: 2.89

Question: With YGETCFPKGRFERKRNLSRKKQHI as the variant, how does the protein stability index read?
Answer: 2.5

Question: For YGETCFPKGRFERKRNTSRKKQHI, which protein stability index is on record?
Answer: 3.09

Question: With YGETCFPKGRFERKRNFSRKKQHI as the variant, how does the protein stability index read?
Answer: 2.78

Question: For YGETCFPKGRFERKRNHSRKKQHI, which protein stability index is on record?
Answer: 3.04

Question: Which protein stability index does the source give for YGETCFPKGRFERKRNPSRKKCHI here?
Answer: 2.14

Question: With YGETCFPKGRFERKRNPSRKKGHI as the variant, how does the protein stability index read?
Answer: 2.95

Question: For YGETCFPKGRFERKRNPSRKKMHI, which protein stability index is on record?
Answer: 2.61

Question: Which protein stability index does the source give for YGETCFPKGRFERKRNPSRKKFHI here?
Answer: 2.23

Question: For YGETCFPKGRFERKRNPSRKKKHI, which protein stability index is on record?
Answer: 2.73

Question: With YGETCFPKGRFERKRNPSRKKDHI as the variant, how does the protein stability index read?
Answer: 2.9

Question: Which protein stability index does the source give for YGETCFPKGRFERKRNPSRKKLHI here?
Answer: 2.4

Question: With YGETCFPKGRFERKRNPSREKQHI as the variant, how does the protein stability index read?
Answer: 2.77

Question: For YGETCFPKGRFERKRNPSRNKQHI, which protein stability index is on record?
Answer: 3.08

Question: With YGETCFPKGRFERKRNPSRPKQHI as the variant, how does the protein stability index read?
Answer: 2.49

Question: Which protein stability index does the source give for YGETCFPKGRFERKRNPSRKKQKI here?
Answer: 3.22

Question: With YGETCFPKGRFERKRNPSRKKQPI as the variant, how does the protein stability index read?
Answer: 3.1

Question: For YGETCFPKGRFERKRNPSRKKQVI, which protein stability index is on record?
Answer: 2.78

Question: For YGETCFPKGRFERKRNPSRKKQYI, which protein stability index is on record?
Answer: 2.76

Question: For YGETCFPKGRFERKRNPSRKKQGI, which protein stability index is on record?
Answer: 3.25

Question: For YGETCFPKGRFERKRNPSRKRQHI, which protein stability index is on record?
Answer: 2.85

Question: Which protein stability index does the source give for YGETCFPKGRFERKRNPSRKCQHI here?
Answer: 2.45

Question: For YGETCFPKGRFERKRNPSRKEQHI, which protein stability index is on record?
Answer: 3.1

Question: For YGETCFPKGRFERKRNPSRKSQHI, which protein stability index is on record?
Answer: 3.05

Question: For YGETCFPKGRFERKRNPSRKFQHI, which protein stability index is on record?
Answer: 2.09

Question: Which protein stability index does the source give for YGETCFPKGRFERKRNPSRKLQHI here?
Answer: 1.95

Question: For YGETCFPKGRFERKRNPSRKWQHI, which protein stability index is on record?
Answer: 2.17

Question: For YGETCFPKWRFERKRNPSRKKQHI, which protein stability index is on record?
Answer: 2.15

Question: With YGETCFPKYRFERKRNPSRKKQHI as the variant, how does the protein stability index read?
Answer: 3.75

Question: Which protein stability index does the source give for YGETCFPKDRFERKRNPSRKKQHI here?
Answer: 2.71

Question: With YGETCHPKGRFERKRNPSRKKQHI as the variant, how does the protein stability index read?
Answer: 4.08

Question: For YGETCFPKGRFCRKRNPSRKKQHI, which protein stability index is on record?
Answer: 2.8

Question: With YGETCFPKGRFLRKRNPSRKKQHI as the variant, how does the protein stability index read?
Answer: 3.59

Question: Which protein stability index does the source give for YGETCFPKGRFMRKRNPSRKKQHI here?
Answer: 1.87

Question: With YGETCFPKGRFFRKRNPSRKKQHI as the variant, how does the protein stability index read?
Answer: 2

Question: With YGETRFPKGRFERKRNPSRKKQHI as the variant, how does the protein stability index read?
Answer: 3.29

Question: For YGETIFPKGRFERKRNPSRKKQHI, which protein stability index is on record?
Answer: 3.16

Question: For YGETTFPKGRFERKRNPSRKKQHI, which protein stability index is on record?
Answer: 2.47

Question: For YGETCFPKGRFERKRNPSLKKQHI, which protein stability index is on record?
Answer: 2.06

Question: Which protein stability index does the source give for YGETCFPKGRFERKRNPSFKKQHI here?
Answer: 1.83

Question: For YGETCFPKGRFERKRNPSAKKQHI, which protein stability index is on record?
Answer: 3.07

Question: With YGETCFPKGRFERKRNPSEKKQHI as the variant, how does the protein stability index read?
Answer: 2.56

Question: For YGETCFPKGRFERKRNPSVKKQHI, which protein stability index is on record?
Answer: 2.89

Question: Which protein stability index does the source give for YGETCFPKGKFERKRNPSRKKQHI here?
Answer: 2.71

Question: With YGETCFPKGVFERKRNPSRKKQHI as the variant, how does the protein stability index read?
Answer: 2.24

Question: For YGETCFPKGYFERKRNPSRKKQHI, which protein stability index is on record?
Answer: 2.72

Question: With YGETCFPKGLFERKRNPSRKKQHI as the variant, how does the protein stability index read?
Answer: 2.67

Question: For YGETCFPVGRFERKRNPSRKKQHI, which protein stability index is on record?
Answer: 2.36

Question: With YGETCFPNGRFERKRNPSRKKQHI as the variant, how does the protein stability index read?
Answer: 1.93

Question: Which protein stability index does the source give for YGETCFPSGRFERKRNPSRKKQHI here?
Answer: 2.42

Question: Which protein stability index does the source give for YGETCFPIGRFERKRNPSRKKQHI here?
Answer: 2.49

Question: For YGETCFPKGRFERKRNPSRKKQHR, which protein stability index is on record?
Answer: 2.86

Question: With YGETCFPKGRFERKRNPSRKKQHF as the variant, how does the protein stability index read?
Answer: 2.71

Question: With YGETCFPKGRPERKRNPSRKKQHI as the variant, how does the protein stability index read?
Answer: 2.97

Question: For YGHTCFPKGRFERKRNPSRKKQHI, which protein stability index is on record?
Answer: 2.56

Question: With YGITCFPKGRFERKRNPSRKKQHI as the variant, how does the protein stability index read?
Answer: 2.71

Question: With YGDTCFPKGRFERKRNPSRKKQHI as the variant, how does the protein stability index read?
Answer: 2.2

Question: For YVETCFPKGRFERKRNPSRKKQHI, which protein stability index is on record?
Answer: 2.74

Question: With YSETCFPKGRFERKRNPSRKKQHI as the variant, how does the protein stability index read?
Answer: 3.4

Question: Which protein stability index does the source give for YLETCFPKGRFERKRNPSRKKQHI here?
Answer: 2.58

Question: For YEETCFPKGRFERKRNPSRKKQHI, which protein stability index is on record?
Answer: 4.37

Question: With YGETCFPKGRFERKMNPSRKKQHI as the variant, how does the protein stability index read?
Answer: 3.17

Question: For YGETCFPKGRFERKQNPSRKKQHI, which protein stability index is on record?
Answer: 2.88

Question: Which protein stability index does the source give for YGEYCFPKGRFERKRNPSRKKQHI here?
Answer: 2.09

Question: For YGEMCFPKGRFERKRNPSRKKQHI, which protein stability index is on record?
Answer: 2.47

Question: For YGEKCFPKGRFERKRNPSRKKQHI, which protein stability index is on record?
Answer: 2.13

Question: For YGENCFPKGRFERKRNPSRKKQHI, which protein stability index is on record?
Answer: 2.37

Question: Which protein stability index does the source give for YGEFCFPKGRFERKRNPSRKKQHI here?
Answer: 2.1

Question: For YGETCFEKGRFERKRNPSRKKQHI, which protein stability index is on record?
Answer: 3.63

Question: With YGETCFAKGRFERKRNPSRKKQHI as the variant, how does the protein stability index read?
Answer: 2.77

Question: Which protein stability index does the source give for YGETCFPKGRFERVRNPSRKKQHI here?
Answer: 2.42

Question: With YGETCFPKGRFERFRNPSRKKQHI as the variant, how does the protein stability index read?
Answer: 2.55

Question: For YGETCFPKGRFERKRRPSRKKQHI, which protein stability index is on record?
Answer: 2.63

Question: Which protein stability index does the source give for YGETCFPKGRFERKRCPSRKKQHI here?
Answer: 2.14

Question: With YGETCFPKGRFERKRNPFRKKQHI as the variant, how does the protein stability index read?
Answer: 2.71

Question: For YGETCFPKGRFERKRNPGRKKQHI, which protein stability index is on record?
Answer: 3.53

Question: With YGETCFPKGRFERKRNPERKKQHI as the variant, how does the protein stability index read?
Answer: 3.63

Question: For YGETCFPKGRFERKRNPDRKKQHI, which protein stability index is on record?
Answer: 3.07

Question: With YGETCFPKGRFERKRNPYRKKQHI as the variant, how does the protein stability index read?
Answer: 2.02

Question: For YGETCFPKGRFERKRNPIRKKQHI, which protein stability index is on record?
Answer: 2.88

Question: Which protein stability index does the source give for RGETCFPKGRFERKRNPSRKKQHI here?
Answer: 3.63

Question: For FGETCFPKGRFERKRNPSRKKQHI, which protein stability index is on record?
Answer: 1.9

Question: For IGETCFPKGRFERKRNPSRKKQHI, which protein stability index is on record?
Answer: 3.74

Question: With AGETCFPKGRFERKRNPSRKKQHI as the variant, how does the protein stability index read?
Answer: 4.36

Question: With YGETCFPKGRFECKRNPSRKKQHI as the variant, how does the protein stability index read?
Answer: 2.33

Question: With YGETCFPKGRFEQKRNPSRKKQHI as the variant, how does the protein stability index read?
Answer: 2.61

Question: For YGETCFPKGRFEIKRNPSRKKQHI, which protein stability index is on record?
Answer: 2.32

Question: Which protein stability index does the source give for YGETCFPKGRFELKRNPSRKKQHI here?
Answer: 2.58

Question: For YGETCFPKGRFEGKRNPSRKKQHI, which protein stability index is on record?
Answer: 2.22

Question: With YGETCFPKGRFEHKRNPSRKKQHI as the variant, how does the protein stability index read?
Answer: 3.21

Question: Which protein stability index does the source give for YGETCFPKGRFEFKRNPSRKKQHI here?
Answer: 2.43
